Experiment: yeast display, Sf9 membrane polyspecificity reagent, FACS + sequencing; frameworks hold sequencing errors
Summary of the method: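 Genes from sorted yeast were amplified by colony PCR, read by MiSeq 2 × 250 sequencing and filtered on CDR length. These cells carried a synthetic nanobody library in Saccharomyces cerevisiae BJ5465 and were sorted by FACS into low and high (top ~1%) gates on anti-HA and streptavidin fluorescence. Polyreactivity is labelled according to the gate of origin.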

Sequence	polyreactivity (PSR sort gate)
QVQLVESGGGLVQAGGSLRLSCAATGSTFDRNAMVWYRLAPGKERELVAAISWRGGRTYYADSVKGRFTISRDNAKNTVYLQMNSLKPEDTAVYYCSAKGPGIRSVEGYDYWGQGTQVTVSS	low polyreactivity
QVQLVESGGGLVQAGGSLRLSCAATGSTFGAYAMGWYRQAPGKERELVAAITRRSGSTYYADSVKGRFTISRDNAKNTVYLQMNSLKPEDTAVYYCAARASTIMGSWGQGTQVTVSS	high polyreactivity
QVQLVESGGGLVQAGGSLRLSCAATGSTFHWYAMGWYRQAPGKATELVATITWSGGSTYYADSVKGRFTISRDNAKNTVYLQMNSLKPEDTAVYYCAAETYILLEYDYWGQGTQVTVSS	high polyreactivity
QVQLVESGGGLVQAGGSLRLSCAATGSTFKWYAMGWYIQAPGKERELVDSISWTGASTYYADSVKGRFTISRDKAKNTVYLQMNSLKPEDTAVYYCAADRTYYALLWTGRSRYDYWGQGTQVTVSS	high polyreactivity
QVQLVESGGGLVQAGGSLRLSCAATGSTFLVNAMGWYRQAPGKERELVAAISRGGSTYADSVKGRFTISRDNAKNTVYLQMYSMNPEDTAVYYCNARRYQSYRYYYWGQGTQVTVSS	high polyreactivity
QVQLVESGGGLVQAGGSLRLSCAATGSTFRNNAMGWSRQAPGKERELVAAISRGGGSTYYADSVKGRFTISRDNAKNTVYLQMNSLKPEVTAVYYCARRPTGIYDYWGQGTQVTLSS	high polyreactivity
QVQLVESGGGLVQAGGSLRLSCAATGSTFRYYAMGWYRQAPGKERELVAAISASGSSTYYADSVKGRFTISRHNAKNTVFLQMYSLKPEDTAVYYCATRQFYVRLGYYSWGQGTQVTVSS	high polyreactivity
QVQLVESGGGLVQAGGSLRLSCAATGSTFTSYAMGWYRQAPGKERELVAVISFSGGSTYYADSVKGRFTISRDNAKNTVYLQMNSLKPEDTAVYYCAARIYKRYYWGQGTQVTVSS	high polyreactivity
QVQLVESGGGLVQAGGSLRLSCAATGYTLYYNAMGWYIQAPGKERELVAAITSGGSTSYADSVKGRFTISRDNAKNTVYLQMNRLIPEDTAVYYCAAVFYRRFDYWGQGTQVTVSS	low polyreactivity
QVQLVESGGGLVQAGGSLRLSCAATRSIFFGYAMGWYRQAPGKEREFVAAITASGVRTYYADSVKGRFTISLDNAKNTVYLQMNSLKPEDTAVYYCAARIGTGVLPGRGANSHMDYWGQGTQVTVSS	low polyreactivity
QVQLVESGGGLVQAGGSLRLSCAAYGFILDFYTMGWYRQAPGKERELVAAITNGGSTYYADSVKGRFTISRDNAKNTVYLQMNSLKPEDTAVYYCAAYYRSRHNGYDSWGQGTQVTVSS	low polyreactivity
QVQLVESGGGLVQAGGSLRLSCAAYGFTFASNVMGWYRQAPGKDRELVAAITSGASTNYADSVKGRFTISRDNAKNTVYLQMNSLKPVDTAVYYCAAGRQWYVFYEFDYWGQGTQVTVSS	high polyreactivity
QVQLVESGGGLVQAGGSLRLSCAAYGFTFYPYAMGWYRQAPGKEREVVAASNSGGSTYYADSVKGRFTISRDNAKNTVYLQMNSLKPEDTAVYYCSAYGKRGAVAFYYWGQGTQVTVSS	high polyreactivity
QVQLVESGGGLVQAGGSLRLSCAAYGGIFYSNGMGWYRQAPGKERELVAAITGGDITDYADSVKGRFTISRDNAKNTVYLQMNSLKPEDTAVYYCAVESYPPDYGPRFGSWGQGTQVTVSS	low polyreactivity
QVQLVESGGGLVQAGGSLRLSCAAYGIIFNSYFMGWYRPAPGKERELVAAITGSCGRTYYADSVKGRFTISRDNAKNTVYLQIISLKPEDTAVYYCSATNRGQVYGAWYNSWGQGTQVTVSS	high polyreactivity
QVQLVESGGGLVQAGGSLRLSCAAYGIIFSYNVMGWYRQAPGKEREYVAAITRSGGSTYYADSVKGRFTISRDNAKNTVYLQMNSLKPEDTAVYYCAATTWSGPSRYYDWGQGTQVTVSS	high polyreactivity
QVQLVESGGGLVQAGGSLRLSCAAYGIIIGNNAMGCYRQAPGKERELVAAISRRGGSTYYADSVKGRFTISRDNAKNTVYLQMNSLKPEDTAVYYCAADIYRYNSYDYWGQGTQVTVSS	low polyreactivity

Source: the nanobody polyreactivity screen of Harvey et al. (2022)
